Laboratory results taken from patent US20240141060A1 (Novartis, published 2024).
Residue numbers refer to the chain shown, from its start.

B1: 358.C (antibody, V domains shown)
VH: QVQLQESGPGLVKPSETLSLTCTVSGGSISGRYWSWIRQPPGKGLEWIGYIYGTGSTNYNPSLKSRVTISVDTSKNQFSLKLSSVTAADTAVYYCARESQESPYNNWFDPWGQGTLVTVSS
VL: DIQMTQSPSSVSASVGDRVTITCRASQGISSWLAWYQQKPGKAPKLLIYAASSLQSGVPSRFSGSGSGTDFTLTISSLQPEDFATYYCQQGNSFPRTFGGGTKVEIK
B2: 356.C (antibody, V domains shown)
VH: B1 VH with S30E, T54S, N58K
VL: B1 VL
B3: 918.C (antibody, V domains shown)
VH: B1 VH with G31S, R32Y, G53S, T54S
VL: B1 VL
B4: 930.C (antibody, V domains shown)
VH: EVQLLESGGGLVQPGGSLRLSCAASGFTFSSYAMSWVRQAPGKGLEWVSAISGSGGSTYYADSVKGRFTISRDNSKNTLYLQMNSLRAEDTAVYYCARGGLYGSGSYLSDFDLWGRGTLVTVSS
VL: EIVLTQSPATLSVSPGERATLSCRASQSVGSNLAWYQQKPGQAPRLLIYGASTRATGIPARFSGSGSGTEFTLTISSLQSEDFAVYYCQQHNAFPYTFGGGTKVEIK
notes: also called 930 IgG1 format
B5: 930 (antibody, V domains shown)
VH: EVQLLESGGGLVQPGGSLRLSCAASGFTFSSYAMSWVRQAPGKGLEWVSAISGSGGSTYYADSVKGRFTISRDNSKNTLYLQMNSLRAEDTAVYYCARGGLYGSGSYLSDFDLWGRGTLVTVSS
VL: B4 VL
notes: also called parental antibody 930; Lineage 3 parent
B6: 379.C (antibody, V domains shown)
VH: EVQLLESGGGLVQPGGSLRLSCAASGFTFSRYAMSWVRQAPGKGLEWVSSISGTGGSTYYADSVKGRFTISRDNSKNTLYLQMNSLRAEDTAVYYCARGGLYGSGSYLSDFDLWGRGTLVTVSS
VL: B4 VL
notes: also called 379 IgG1 format
B7: 376.C (antibody, V domains shown)
VH: B6 VH with S30R, R31S, S50A, S52T, T54S, S57L
VL: B4 VL
notes: also called 376 IgG1 format
B8: 373.C (antibody, V domains shown)
VH: B6 VH with S30H, S50A, T54S, G56M, S57N
VL: B4 VL
B9: 376 (antibody, V domains shown)
VH: B6 VH with S30R, R31S, S50A, S52T, T54S, S57L
VL: B4 VL
notes: also called progeny antibody 376; Lineage 3 child
B10: 373 (antibody, V domains shown)
VH: B6 VH with S30H, S50A, T54S, G56M, S57N
VL: B4 VL
notes: also called Lineage 3 child
B11: 374 (antibody, V domains shown)
VH: B6 VH with R31Y, Y32N
VL: B4 VL
notes: also called Lineage 3 child
B12: 377 (antibody, V domains shown)
VH: B6 VH with S30K, R31S, S50A, T54S, G56S, S57Y
VL: B4 VL
notes: also called progeny antibody 377; Lineage 3 child
B13: 374.C (antibody, V domains shown)
VH: B6 VH with R31Y, Y32N
VL: B4 VL
B14: 379 (antibody, V domains shown)
VH: B6 VH
VL: B4 VL
notes: also called progeny antibody 379; Lineage 3 child
B15: 377.C (antibody, V domains shown)
VH: B6 VH with S30K, R31S, S50A, T54S, G56S, S57Y
VL: B4 VL
notes: also called 377 IgG1 format

Tests used:
[1] = molecular target: T1, Cynomolgus CD73/NT5E Protein (His Tag) (Sino Biological Cat: 90192-C08H-50) (cynomolgus monkey, UniProt A0A2K5V5U7 27-547); experiment: ForteBio Octet RED384 (BLI), whole IgG on AHQ sensors, 100 nM antigen, 1:1 model
T1 construct: treated as one protein; also called Cynomolgus CD73-His; recombinant cynomolgus monkey CD73; not shown: His tag
T1 sequence: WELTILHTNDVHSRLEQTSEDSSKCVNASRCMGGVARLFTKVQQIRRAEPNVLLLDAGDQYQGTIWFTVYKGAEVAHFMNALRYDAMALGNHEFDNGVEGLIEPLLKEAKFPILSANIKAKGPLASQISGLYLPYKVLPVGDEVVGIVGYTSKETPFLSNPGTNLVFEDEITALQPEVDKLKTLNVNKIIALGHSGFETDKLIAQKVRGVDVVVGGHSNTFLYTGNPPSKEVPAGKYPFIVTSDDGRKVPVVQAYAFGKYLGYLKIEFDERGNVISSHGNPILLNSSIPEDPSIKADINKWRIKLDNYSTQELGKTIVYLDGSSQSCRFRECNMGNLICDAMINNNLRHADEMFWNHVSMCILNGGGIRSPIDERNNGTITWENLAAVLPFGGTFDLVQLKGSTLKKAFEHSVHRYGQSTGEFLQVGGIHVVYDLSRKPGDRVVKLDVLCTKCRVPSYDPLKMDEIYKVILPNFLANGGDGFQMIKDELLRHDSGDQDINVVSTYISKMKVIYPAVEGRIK
Description: (§1) Briefly, ForteBio affinity measurements were performed by loading IgGs on-line onto AHQ sensors. Sensors were equilibrated off-line in assay buffer for 30 min and then monitored on-line for 60 seconds for baseline establishment. Sensors with loaded IgGs were exposed to 100 nM antigen for 3 minutes, and afterwards were transferred to assay buffer for 3 min for off-rate measurement. All kinetics were analyzed using the 1:1 binding model. Antigens used were: [0438] Human CD73-His: Recombinant Human 5′-Nucleotidase/CD73 Protein, CF from R&D Systems Cat: 5795-EN [0439] Mouse CD73-His: Recombinant Mouse 5′-Nucleotidase/CD73 Protein, CF from R&D Systems Cat: 4488-EN [0440] Cynomolgus CD73-His: Cynomolgus CD73/NT5E Protein (His Tag) from Sino Biological Cat: 90192-C08H-50

[2] = molecular target: T2, Recombinant Human 5′-Nucleotidase/CD73 Protein, CF (R&D Systems Cat: 5795-EN) (human, UniProt P21589 27-547); experiment: as above
T2 construct: Bought protein; also called Human CD73-His; recombinant human CD73; not shown: His tag
T2 sequence (looked up): T1 sequence with T199M, A350T, I466V
Description: as §1

[3] = molecular target: T3, Recombinant Mouse 5′-Nucleotidase/CD73 Protein, CF (R&D Systems Cat: 4488-EN) (mouse, UniProt Q61503 29-549, limits assumed); experiment: as above
T3 construct: Bought protein; also called Mouse CD73-His; recombinant mouse CD73; not shown: His tag
T3 sequence (looked up): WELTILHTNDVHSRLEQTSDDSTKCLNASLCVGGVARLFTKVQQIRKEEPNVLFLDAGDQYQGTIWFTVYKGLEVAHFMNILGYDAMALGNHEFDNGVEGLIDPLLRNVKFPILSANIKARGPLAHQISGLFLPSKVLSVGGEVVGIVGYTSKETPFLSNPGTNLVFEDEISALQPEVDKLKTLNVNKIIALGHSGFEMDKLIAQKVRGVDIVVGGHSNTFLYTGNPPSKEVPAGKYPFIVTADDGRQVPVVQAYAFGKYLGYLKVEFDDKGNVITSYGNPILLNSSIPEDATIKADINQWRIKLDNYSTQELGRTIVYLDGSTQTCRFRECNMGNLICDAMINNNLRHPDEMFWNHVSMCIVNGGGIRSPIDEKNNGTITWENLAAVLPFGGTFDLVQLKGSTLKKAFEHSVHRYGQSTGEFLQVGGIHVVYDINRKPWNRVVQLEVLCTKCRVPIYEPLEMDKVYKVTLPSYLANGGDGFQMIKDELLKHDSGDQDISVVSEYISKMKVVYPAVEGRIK
Description: as §1

[4] = molecular target: T2, Recombinant Human 5′-Nucleotidase/CD73 …; experiment: ForteBio Octet RED384 (BLI), whole IgG on AHQ sensors, 100 nM antigen, 1:1 model; * value approaching upper limit for Kd measurement
Description: as §1

[5] = molecular target: T3, Recombinant Mouse 5′-Nucleotidase/CD73 …; experiment: ForteBio Octet RED384 (BLI), whole IgG on AHQ sensors, 1:1 model
Description: as §1

[6] = molecular target: T3, Recombinant Mouse 5′-Nucleotidase/CD73 …; experiment: restated binding profile (Octet)

Binder	Kd [1]	Kd [2]	binding result [5]	binding result [6]	further results
B1	814 pM	317 pM	–	–	Kd [3]: 3510 pM
B2	693 pM	–	–	–	Kd [3]: 401 pM; Kd [4]: 243 pM
B3	–	1530 pM	–	–	Kd [3]: 8880 pM
B4	–	1830 pM	no binding (tested: 100 nM antigen)	–	–
B5	–	–	–	no binding	–
B6	1620 pM	550 pM	no binding (tested: 100 nM antigen)	–	–
B7	–	301 pM	no binding (tested: 100 nM antigen)	–	–
B8	914 pM	621 pM	no binding (tested: 100 nM antigen)	–	–
B9	–	–	–	no binding	–
B10	–	–	–	no binding	–
B11	–	–	–	no binding	–
B12	–	–	–	no binding	–
B13	103 pM	358 pM	no binding (tested: 100 nM antigen)	–	–
B14	–	–	–	no binding	–
B15	1420 pM	572 pM	no binding (tested: 100 nM antigen)	–	–
